Data: patent US20060234906A1, “Structure of a complex of retinoblastoma protein bound to e2f, and uses thereof” (priority 2002, published 2006)

Key:
RbABC [1] = molecular target: T1, RbABC (Homo sapiens, UniProt P06400); test: RbABC
T1 construct: His6-RbABC (RESIDUES 380-929); made in house; host or cells: E. coli
T1 sequence (P06400 whole entry, looked up): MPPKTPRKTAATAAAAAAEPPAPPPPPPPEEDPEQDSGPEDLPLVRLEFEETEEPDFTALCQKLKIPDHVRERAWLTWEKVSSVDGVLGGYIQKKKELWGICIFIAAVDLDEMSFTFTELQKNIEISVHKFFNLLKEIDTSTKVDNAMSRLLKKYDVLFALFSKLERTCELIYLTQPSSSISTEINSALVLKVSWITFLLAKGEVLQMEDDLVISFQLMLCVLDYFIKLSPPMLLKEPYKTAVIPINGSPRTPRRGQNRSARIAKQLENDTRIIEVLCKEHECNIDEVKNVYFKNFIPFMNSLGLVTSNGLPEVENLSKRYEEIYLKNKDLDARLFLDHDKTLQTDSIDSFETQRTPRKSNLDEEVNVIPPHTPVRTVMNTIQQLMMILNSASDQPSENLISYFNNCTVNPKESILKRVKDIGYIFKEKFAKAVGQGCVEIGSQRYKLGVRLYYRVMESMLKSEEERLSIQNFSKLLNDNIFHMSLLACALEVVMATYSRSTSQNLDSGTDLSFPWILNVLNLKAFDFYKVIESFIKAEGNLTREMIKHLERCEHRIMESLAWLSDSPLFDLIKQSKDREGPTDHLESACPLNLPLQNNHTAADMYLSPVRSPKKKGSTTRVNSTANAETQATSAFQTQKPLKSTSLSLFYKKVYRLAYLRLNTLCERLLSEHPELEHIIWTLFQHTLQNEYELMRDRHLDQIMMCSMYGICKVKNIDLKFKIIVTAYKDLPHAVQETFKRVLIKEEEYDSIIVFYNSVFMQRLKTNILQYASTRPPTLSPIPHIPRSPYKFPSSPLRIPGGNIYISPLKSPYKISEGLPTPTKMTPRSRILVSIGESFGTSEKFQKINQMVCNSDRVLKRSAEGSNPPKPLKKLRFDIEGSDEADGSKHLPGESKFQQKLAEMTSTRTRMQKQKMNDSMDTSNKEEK
From the text: (§1) Table printed on a drawing sheet, FIG. 2B
(§2) The patent's description of the figure: FIG. 2.
(§3) First copying reader's note: Binding constants of E2F fragments to the Rb constructs RbAB and RbABC; the error is printed in the same cell as the value.
Where the first naming reader finds the target: head: RbABC

RbAB [2] = molecular target: T2, RbAB (Homo sapiens, UniProt P06400); test: Isothermal titration calorimetry of E2F constructs binding to RbAB; details: ITC, binding to pRbAB
T2 construct: residues 372 to 589 of the A domain and 636 to 787 of the B domain; GST (with Prescission protease site) (N, cleaved yes); engineered thrombin site (LVPRGS) at the A-domain end of the A-B linker (C, cleaved yes); engineered thrombin site (LVPRGS) at the B-domain end of the A-B linker (N, cleaved yes); made in house; host or cells: E. coli
T2 sequence (P06400 372-589): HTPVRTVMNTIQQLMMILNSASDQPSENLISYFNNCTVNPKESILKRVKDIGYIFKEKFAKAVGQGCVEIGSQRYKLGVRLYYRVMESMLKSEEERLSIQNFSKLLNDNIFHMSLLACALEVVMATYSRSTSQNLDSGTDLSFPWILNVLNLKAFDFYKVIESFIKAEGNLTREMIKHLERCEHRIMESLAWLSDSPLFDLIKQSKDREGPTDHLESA
T2 sequence (P06400 636-787): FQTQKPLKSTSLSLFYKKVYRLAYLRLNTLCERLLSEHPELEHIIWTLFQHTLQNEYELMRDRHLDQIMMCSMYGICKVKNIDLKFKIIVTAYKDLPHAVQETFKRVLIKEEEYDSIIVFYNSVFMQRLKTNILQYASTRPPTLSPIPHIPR
Procedure: The panel represents the experiment where E2F(243-437) is titrated into RbAB.
(§4) (B) Summary of dissociation constants obtained by ITC measurements. The quoted errors are those produced by fitting the data to a two-state model. For the interaction of E2F(243-437) to RbAB and RbABC the affinities are too high to measure reliably and we have therefore quoted the upper limits of the dissociation constants.
(§5) Binding of the various E2F constructs to RbAB and RbABC was measured by isothermal titration calorimetry using a MicroCal Omega VP-ITC machine (MicroCal Inc., Northampton, USA). The E2F constructs at a concentration between 100-150 μM were titrated into 12-15 μM Rb at a temperature of 22° C. Proteins were dialysed against 50 mM Tris pH 7.6, 100 mM NaCl and 1 mM TCEP. After subtraction of the dilution heats, calorimetric data was analysed using the evaluation software MicroCal Origin v5.0 (MicroCal Software Inc.). For all of the titrations, the stoichiometry of ligand binding to Rb was very close to 1.0. For E2F(243-437) binding to Rb, the binding affinity and the heat change associated with binding were such that we could only establish that binding was tighter than 10 nM.

RbAB [3] = molecular target: T3, RbAB (Homo sapiens, UniProt P06400); test: RbAB
T3 construct: residues 372 to 589 of the A domain and 636 to 787 of the B domain; GST (with Prescission protease site) (N, cleaved yes); engineered thrombin site (LVPRGS) at the A-domain end of the A-B linker (C, cleaved yes); engineered thrombin site (LVPRGS) at the B-domain end of the A-B linker (N, cleaved yes); made in house; host or cells: E. coli
T3 sequence (P06400 whole entry, looked up): T1 sequence (P06400 whole entry, looked up)
From the text: as §1, §2, §3
Where the first naming reader finds the target: head: RbAB

RbABC [4] = molecular target: T4, RbABC (Homo sapiens, UniProt P06400); test: Isothermal titration calorimetry of E2F constructs binding to RbABC; details: ITC
T4 construct: His6-RbABC (RESIDUES 380-929); made in house; host or cells: E. coli
T4 sequence (P06400 380-928 limits assumed): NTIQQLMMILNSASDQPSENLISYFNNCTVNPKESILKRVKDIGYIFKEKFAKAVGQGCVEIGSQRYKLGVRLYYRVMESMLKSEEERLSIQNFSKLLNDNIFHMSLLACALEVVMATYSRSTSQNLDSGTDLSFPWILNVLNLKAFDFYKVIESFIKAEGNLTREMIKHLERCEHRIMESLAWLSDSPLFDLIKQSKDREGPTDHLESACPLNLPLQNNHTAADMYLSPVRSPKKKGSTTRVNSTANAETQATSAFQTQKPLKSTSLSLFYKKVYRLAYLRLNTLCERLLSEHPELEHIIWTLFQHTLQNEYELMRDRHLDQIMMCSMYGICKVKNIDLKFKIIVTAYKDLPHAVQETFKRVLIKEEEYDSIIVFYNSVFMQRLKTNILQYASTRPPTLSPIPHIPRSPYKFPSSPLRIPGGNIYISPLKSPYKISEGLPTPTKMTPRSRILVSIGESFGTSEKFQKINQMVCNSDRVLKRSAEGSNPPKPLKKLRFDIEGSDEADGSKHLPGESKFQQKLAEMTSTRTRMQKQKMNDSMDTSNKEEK
Procedure: as §4, §5

B1: E2F(243-437): Recombinant human E2F1(243-437) expressed in E. coli (protein, UniProt Q01094 243-437, looked up, fragment)
chain: LAYVTCQDLRSIADPAEQMVMVIKAPPETQLQAVDSSENFQISLKSKQGPIDVFLCPEETVGGISPGKTPSQEVTSEEENRATDSATIVSPPPSSPPSSLTTDPSQSLLSLEQEPLLSRMGSLRAPVDEDRLSPLVAADSLLEHVREDFSGLLPEEFISLSPPHEALDYHFGLEEGEGIRDLFDCDFGDLTPLDF
Kd (RbABC [1]): < 10 nM
binds stronger than either of the two shorter E2F fragments (RbAB [2]): at least 16 fold
Kd (RbAB [3]): < 10 nM
binds stronger than either of the two shorter E2F fragments (RbABC [4]): at least 16 fold
